Data reported in IntAct's records for PubMed 30126976.

B1: Plasma membrane calcium-transporting ATPase 1 (Homo sapiens), P20020 (parent)
chain: MGDMANNSVAYSGVKNSLKEANHDGDFGITLAELRALMELRSTDALRKIQESYGDVYGICTKLKTSPNEGLSGNPADLERREAVFGKNFIPPKKPKTFLQLVWEALQDVTLIILEIAAIVSLGLSFYQPPEGDNALCGEVSVGEEEGEGETGWIEGAAILLSVVCVVLVTAFNDWSKEKQFRGLQSRIEQEQKFTVIRGGQVIQIPVADITVGDIAQVKYGDLLPADGILIQGNDLKIDESSLTGESDHVKKSLDKDPLLLSGTHVMEGSGRMVVTAVGVNSQTGIIFTLLGAGGEEEEKKDEKKKEKKNKKQDGAIENRNKAKAQDGAAMEMQPLKSEEGGDGDEKDKKKANLPKKEKSVLQGKLTKLAVQIGKAGLLMSAITVIILVLYFVIDTFWVQKRPWLAECTPIYIQYFVKFFIIGVTVLVVAVPEGLPLAVTISLAYSVKKMMKDNNLVRHLDACETMGNATAICSDKTGTLTMNRMTVVQAYINEKHYKKVPEPEAIPPNILSYLVTGISVNCAYTSKILPPEKEGGLPRHVGNKTECALLGLLLDLKRDYQDVRNEIPEEALYKVYTFNSVRKSMSTVLKNSDGSYRIFSKGASEIILKKCFKILSANGEAKVFRPRDRDDIVKTVIEPMASEGLRTICLAFRDFPAGEPEPEWDNENDIVTGLTCIAVVGIEDPVRPEVPDAIKKCQRAGITVRMVTGDNINTARAIATKCGILHPGEDFLCLEGKDFNRRIRNEKGEIEQERIDKIWPKLRVLARSSPTDKHTLVKGIIDSTVSDQRQVVAVTGDGTNDGPALKKADVGFAMGIAGTDVAKEASDIILTDDNFTSIVKAVMWGRNVYDSISKFLQFQLTVNVVAVIVAFTGACITQDSPLKAVQMLWVNLIMDTLASLALATEPPTESLLLRKPYGRNKPLISRTMMKNILGHAFYQLVVVFTLLFAGEKFFDIDSGRNAPLHAPPSEHYTIVFNTFVLMQLFNEINARKIHGERNVFEGIFNNAIFCTIVLGTFVVQIIIVQFGGKPFSCSELSIEQWLWSIFLGMGTLLWGQLISTIPTSRLKFLKEAGHGTQKEEIPEEELAEDVEEIDHAERELRRGQILWFRGLNRIQTQIRVVNAFRSSLYEGLEKPESRSSIHNFMTHPEFRIEDSEPHIPLIDDTDAEDDAPTKRNSSPPPSPNKNNNAVDSGIHLTIEMNKSATSSSPGSPLHSLETSL
B2: Ribosomal protein S6 kinase alpha-2 (Homo sapiens), Q15349 (parent)
chain: MDLSMKKFAVRRFFSVYLRRKSRSKSSSLSRLEEEGVVKEIDISHHVKEGFEKADPSQFELLKVLGQGSYGKVFLVRKVKGSDAGQLYAMKVLKKATLKVRDRVRSKMERDILAEVNHPFIVKLHYAFQTEGKLYLILDFLRGGDLFTRLSKEVMFTEEDVKFYLAELALALDHLHSLGIIYRDLKPENILLDEEGHIKITDFGLSKEAIDHDKRAYSFCGTIEYMAPEVVNRRGHTQSADWWSFGVLMFEMLTGSLPFQGKDRKETMALILKAKLGMPQFLSGEAQSLLRALFKRNPCNRLGAGIDGVEEIKRHPFFVTIDWNTLYRKEIKPPFKPAVGRPEDTFHFDPEFTARTPTDSPGVPPSANAHHLFRGFSFVASSLIQEPSQQDLHKVPVHPIVQQLHGNNIHFTDGYEIKEDIGVGSYSVCKRCVHKATDTEYAVKIIDKSKRDPSEEIEILLRYGQHPNIITLKDVYDDGKFVYLVMELMRGGELLDRILRQRYFSEREASDVLCTITKTMDYLHSQGVVHRDLKPSNILYRDESGSPESIRVCDFGFAKQLRAGNGLLMTPCYTANFVAPEVLKRQGYDAACDIWSLGILLYTMLAGFTPFANGPDDTPEEILARIGSGKYALSGGNWDSISDAAKDVVSKMLHVDPHQRLTAMQVLKHPWVVNREYLSPNQLSRQDVHLVKGAMAATYFALNRTPQAPRLEPVLSSNLAQRRGMKRLTSTRL
B3: Mitogen-activated protein kinase 12 (Homo sapiens), P53778 (parent)
chain: MSSPPPARSGFYRQEVTKTAWEVRAVYRDLQPVGSGAYGAVCSAVDGRTGAKVAIKKLYRPFQSELFAKRAYRELRLLKHMRHENVIGLLDVFTPDETLDDFTDFYLVMPFMGTDLGKLMKHEKLGEDRIQFLVYQMLKGLRYIHAAGIIHRDLKPGNLAVNEDCELKILDFGLARQADSEMTGYVVTRWYRAPEVILNWMRYTQTVDIWSVGCIMAEMITGKTLFKGSDHLDQLKEIMKVTGTPPAEFVQRLQSDEAKNYMKGLPELEKKDFASILTNASPLAVNLLEKMLVLDAEQRVTAGEALAHPYFESLHDTEDEPQVQKYDDSFDDVDRTLDEWKRVTYKEVLSFKPPRQLGARVSKETPL
B4: Corticotropin-releasing factor receptor 1 (Homo sapiens), P34998-1 (parent)
chain: MGGHPQLRLVKALLLLGLNPVSASLQDQHCESLSLASNISGLQCNASVDLIGTCWPRSPAGQLVVRPCPAFFYGVRYNTTNNGYRECLANGSWAARVNYSECQEILNEEKKSKVHYHVAVIINYLGHCISLVALLVAFVLFLRLRPGCTHWGDQADGALEVGAPWSGAPFQVRRSIRCLRNIIHWNLISAFILRNATWFVVQLTMSPEVHQSNVGWCRLVTAAYNYFHVTNFFWMFGEGCYLHTAIVLTYSTDRLRKWMFICIGWGVPFPIIVAWAIGKLYYDNEKCWFGKRPGVYTDYIYQGPMILVLLINFIFLFNIVRILMTKLRASTTSETIQYRKAVKATLVLLPLLGITYMLFFVNPGEDEVSRVVFIYFNSFLESFQGFFVSVFYCFLNSEVRSAIRKRWHRWQDKHSIRARVARAMSIPTSPTRVSFHSIKQSTAV
B5: FAST kinase domain-containing protein 5, mitochondrial (Homo sapiens), Q7L8L6 (parent)
chain: MAATLKSLKLVRYRAFCSPSAFGAVRSVSYWNVSSTQHGGQDPPEHISLCHSAKKVKNICSTFSSRRILTTSSAHPGLEFSKTSSSKASTLQLGSPRATGVDEEDVEVFDSFENMRVFLQLRPEYRVHSYNASETSQLLSVSEGELILHKVRVNQNNLQAQVIVDYLCKLSSLPAEQHPVLLGSTSFALLCQLSVKKIQLFDTQDLINVLKAFVILGIPHSHSMLDVYETKCCHQVWEMNMDQLLLVADLWRYLGRKVPRFLNIFSSYLNLHWKDLSLSQLVHLIYVIGENRQVSQDLMQKLESLILKYIDLINLEEVGTICLGFFKSSTNLSEFVMRKIGDLACANIQHLSSRSLVNIVKMFRFTHVDHINFMKQIGEIAPQRIPSLGVQGVMHLTLYCSALRFLNEGVMNAVAASLPPRVAHCRSKDVAKILWSFGTLNYKPPNAEEFYSSLISEIHRKMPEFNQYPEHLPTCLLGLAFLEYFPVELIDFALSPGFVRLAQERTKFDLLKELYTLDGTVGIECPDYRGNRLSTHLQQEGSELLWYLAEKDMNSKPEFLETVFLLETMLGGPQYVKHHMILPHTRSSDLEVQLDVNLKPLPFNREATPAENVAKLRLEHVGVSLTDDLMNKLLKGKARGHFQGKTESEPGQQPMELENKAAVPLGGFLCNVADKSGAMEMAGLCPAACMQTPRMKLAVQFTNRNQYCYGSRDLLGLHNMKRRQLARLGYRVVELSYWEWLPLLKRTRLEKLAFLHEKVFTSAL

Variants of: B1
Conditions: with scrib_human SCRIB
Target sequence in this assay (Q14160 whole entry): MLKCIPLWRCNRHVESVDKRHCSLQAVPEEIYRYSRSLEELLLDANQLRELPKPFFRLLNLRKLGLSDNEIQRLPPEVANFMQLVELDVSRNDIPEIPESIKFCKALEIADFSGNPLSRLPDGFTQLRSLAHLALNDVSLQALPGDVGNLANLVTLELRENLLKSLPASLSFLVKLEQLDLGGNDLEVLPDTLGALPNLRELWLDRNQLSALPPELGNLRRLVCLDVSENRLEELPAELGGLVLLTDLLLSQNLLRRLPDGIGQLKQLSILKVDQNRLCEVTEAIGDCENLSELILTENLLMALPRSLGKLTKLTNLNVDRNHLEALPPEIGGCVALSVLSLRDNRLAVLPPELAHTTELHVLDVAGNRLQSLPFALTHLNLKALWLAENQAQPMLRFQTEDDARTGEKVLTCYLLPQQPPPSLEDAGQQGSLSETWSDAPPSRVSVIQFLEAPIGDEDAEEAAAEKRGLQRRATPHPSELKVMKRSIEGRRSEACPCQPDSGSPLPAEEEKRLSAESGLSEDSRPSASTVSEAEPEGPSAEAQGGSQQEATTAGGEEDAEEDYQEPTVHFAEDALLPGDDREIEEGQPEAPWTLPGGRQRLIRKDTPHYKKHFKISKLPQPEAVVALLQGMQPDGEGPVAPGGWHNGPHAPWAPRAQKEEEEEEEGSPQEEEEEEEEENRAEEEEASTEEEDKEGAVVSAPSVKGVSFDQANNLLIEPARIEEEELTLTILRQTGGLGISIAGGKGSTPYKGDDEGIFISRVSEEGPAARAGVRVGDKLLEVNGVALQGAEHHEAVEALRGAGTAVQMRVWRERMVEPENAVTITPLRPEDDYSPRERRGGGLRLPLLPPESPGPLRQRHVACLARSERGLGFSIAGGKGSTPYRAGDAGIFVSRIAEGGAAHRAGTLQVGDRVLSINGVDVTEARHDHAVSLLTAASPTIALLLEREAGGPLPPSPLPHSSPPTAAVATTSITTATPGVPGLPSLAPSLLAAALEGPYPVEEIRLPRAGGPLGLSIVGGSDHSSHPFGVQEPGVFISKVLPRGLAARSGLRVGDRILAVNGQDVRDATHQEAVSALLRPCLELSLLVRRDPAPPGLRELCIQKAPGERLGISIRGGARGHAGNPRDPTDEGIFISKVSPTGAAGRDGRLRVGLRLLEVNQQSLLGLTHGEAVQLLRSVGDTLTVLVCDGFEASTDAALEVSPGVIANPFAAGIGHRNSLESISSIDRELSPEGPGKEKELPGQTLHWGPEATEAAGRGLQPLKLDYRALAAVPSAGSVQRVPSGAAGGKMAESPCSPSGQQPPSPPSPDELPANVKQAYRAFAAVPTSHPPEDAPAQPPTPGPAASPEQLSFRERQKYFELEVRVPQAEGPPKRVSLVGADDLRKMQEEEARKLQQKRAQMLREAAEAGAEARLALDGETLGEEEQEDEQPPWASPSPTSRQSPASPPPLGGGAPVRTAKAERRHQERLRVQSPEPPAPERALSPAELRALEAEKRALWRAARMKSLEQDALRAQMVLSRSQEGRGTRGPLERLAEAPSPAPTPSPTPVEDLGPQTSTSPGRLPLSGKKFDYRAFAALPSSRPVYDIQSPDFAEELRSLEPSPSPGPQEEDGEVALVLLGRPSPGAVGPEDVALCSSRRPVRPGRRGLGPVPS
In the case of S1219E, the “effect of a mutation on the interaction” value is reported as “increasing interaction strength”.

Variants of: B1
Conditions: with scrib_human SCRIB
Remark: another data set of the same source
Target sequence in this assay (Q14160 whole entry): as above
With S1215E;S1219E the “effect of a mutation on the interaction” value was “increasing interaction strength”.

Variants of: B2
Conditions: with dlg1_human DLG1, Q12959
Target sequence in this assay (Q12959 whole entry, looked up): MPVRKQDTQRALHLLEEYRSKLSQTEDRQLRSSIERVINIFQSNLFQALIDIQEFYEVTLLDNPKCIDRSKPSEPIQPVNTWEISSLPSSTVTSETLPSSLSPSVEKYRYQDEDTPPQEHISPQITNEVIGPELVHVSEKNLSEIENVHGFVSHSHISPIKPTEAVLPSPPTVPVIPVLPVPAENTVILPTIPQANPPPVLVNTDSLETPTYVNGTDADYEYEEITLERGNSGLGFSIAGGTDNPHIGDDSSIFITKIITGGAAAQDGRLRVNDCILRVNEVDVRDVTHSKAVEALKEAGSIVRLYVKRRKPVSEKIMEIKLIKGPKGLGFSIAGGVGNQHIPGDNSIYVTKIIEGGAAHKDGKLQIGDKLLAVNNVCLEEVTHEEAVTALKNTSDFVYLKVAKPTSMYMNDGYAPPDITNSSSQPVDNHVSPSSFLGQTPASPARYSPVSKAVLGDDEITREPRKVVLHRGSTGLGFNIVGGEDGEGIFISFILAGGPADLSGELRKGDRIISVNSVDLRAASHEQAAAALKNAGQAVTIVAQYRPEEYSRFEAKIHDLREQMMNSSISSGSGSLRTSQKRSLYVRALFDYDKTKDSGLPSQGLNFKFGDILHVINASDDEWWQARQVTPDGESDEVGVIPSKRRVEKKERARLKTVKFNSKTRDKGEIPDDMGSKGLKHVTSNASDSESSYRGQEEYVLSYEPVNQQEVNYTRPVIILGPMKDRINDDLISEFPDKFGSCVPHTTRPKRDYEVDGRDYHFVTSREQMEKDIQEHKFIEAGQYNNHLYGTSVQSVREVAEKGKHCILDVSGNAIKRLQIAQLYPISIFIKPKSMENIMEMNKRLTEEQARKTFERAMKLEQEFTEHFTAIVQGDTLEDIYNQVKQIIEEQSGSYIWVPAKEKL
S730E was tested, and the “effect of a mutation on the interaction” value was “increasing interaction strength”.

Variants of: B2
Conditions: with scrib_human SCRIB
Target sequence in this assay (Q14160 whole entry): as the sequence (Q14160 whole entry) above
S730E was tested, and the “effect of a mutation on the interaction” value was “increasing interaction strength”.

Variants of: B2
Conditions: with shan1_human SHANK1, Q9Y566
shan1_human SHANK1, Q9Y566, sequence (Q9Y566 whole entry): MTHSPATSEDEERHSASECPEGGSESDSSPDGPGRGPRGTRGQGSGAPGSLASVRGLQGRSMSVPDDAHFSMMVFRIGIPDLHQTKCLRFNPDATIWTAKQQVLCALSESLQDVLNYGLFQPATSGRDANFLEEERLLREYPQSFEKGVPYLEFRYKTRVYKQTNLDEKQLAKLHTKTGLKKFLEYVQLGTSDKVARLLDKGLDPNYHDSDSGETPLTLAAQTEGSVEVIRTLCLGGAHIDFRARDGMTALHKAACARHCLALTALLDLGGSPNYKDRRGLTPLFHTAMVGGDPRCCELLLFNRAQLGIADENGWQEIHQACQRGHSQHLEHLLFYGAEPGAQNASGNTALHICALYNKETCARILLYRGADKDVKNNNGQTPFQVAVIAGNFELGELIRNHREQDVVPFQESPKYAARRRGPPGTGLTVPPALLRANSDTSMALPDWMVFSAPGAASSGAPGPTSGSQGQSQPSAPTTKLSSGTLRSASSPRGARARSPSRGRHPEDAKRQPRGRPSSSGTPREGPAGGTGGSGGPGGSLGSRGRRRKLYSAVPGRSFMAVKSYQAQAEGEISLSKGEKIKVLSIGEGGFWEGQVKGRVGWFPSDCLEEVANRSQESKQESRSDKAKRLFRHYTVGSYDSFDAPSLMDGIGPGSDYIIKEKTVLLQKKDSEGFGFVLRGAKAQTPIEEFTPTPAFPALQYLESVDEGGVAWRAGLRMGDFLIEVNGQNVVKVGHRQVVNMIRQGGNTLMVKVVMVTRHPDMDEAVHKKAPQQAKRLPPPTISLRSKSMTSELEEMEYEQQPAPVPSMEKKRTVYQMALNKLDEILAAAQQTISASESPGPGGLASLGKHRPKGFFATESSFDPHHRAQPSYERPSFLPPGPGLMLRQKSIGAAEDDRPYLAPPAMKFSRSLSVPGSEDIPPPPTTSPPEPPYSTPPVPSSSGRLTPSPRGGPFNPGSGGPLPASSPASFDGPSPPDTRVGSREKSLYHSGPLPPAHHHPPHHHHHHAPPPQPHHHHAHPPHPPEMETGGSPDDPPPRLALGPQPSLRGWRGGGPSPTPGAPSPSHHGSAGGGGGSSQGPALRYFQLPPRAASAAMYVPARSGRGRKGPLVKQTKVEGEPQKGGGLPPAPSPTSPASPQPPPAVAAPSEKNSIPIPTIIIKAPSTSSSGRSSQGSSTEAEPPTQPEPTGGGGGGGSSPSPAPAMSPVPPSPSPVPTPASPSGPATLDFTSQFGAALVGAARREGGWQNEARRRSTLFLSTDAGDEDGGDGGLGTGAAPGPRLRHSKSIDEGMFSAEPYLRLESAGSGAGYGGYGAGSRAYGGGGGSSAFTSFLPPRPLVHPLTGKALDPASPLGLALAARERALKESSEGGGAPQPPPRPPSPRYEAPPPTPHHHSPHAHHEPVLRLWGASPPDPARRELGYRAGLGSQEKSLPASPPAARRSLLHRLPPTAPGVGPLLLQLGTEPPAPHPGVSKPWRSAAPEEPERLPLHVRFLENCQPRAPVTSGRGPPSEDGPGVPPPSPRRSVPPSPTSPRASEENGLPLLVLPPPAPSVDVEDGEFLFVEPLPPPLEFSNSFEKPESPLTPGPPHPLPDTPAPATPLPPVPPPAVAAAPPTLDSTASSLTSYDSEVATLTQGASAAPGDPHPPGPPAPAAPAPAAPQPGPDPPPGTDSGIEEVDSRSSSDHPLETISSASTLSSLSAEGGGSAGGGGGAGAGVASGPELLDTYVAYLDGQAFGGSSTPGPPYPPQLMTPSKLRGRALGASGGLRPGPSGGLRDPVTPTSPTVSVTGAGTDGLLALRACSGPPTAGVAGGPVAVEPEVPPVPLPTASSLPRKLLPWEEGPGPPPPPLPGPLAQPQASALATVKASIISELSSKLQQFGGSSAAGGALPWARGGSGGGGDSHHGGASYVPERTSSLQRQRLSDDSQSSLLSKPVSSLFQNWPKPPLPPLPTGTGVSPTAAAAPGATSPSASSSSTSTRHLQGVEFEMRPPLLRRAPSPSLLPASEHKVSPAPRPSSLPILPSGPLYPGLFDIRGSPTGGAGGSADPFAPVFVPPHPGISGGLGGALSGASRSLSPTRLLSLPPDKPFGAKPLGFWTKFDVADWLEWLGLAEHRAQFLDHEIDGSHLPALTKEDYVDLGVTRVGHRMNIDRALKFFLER
S730E was tested, and the “effect of a mutation on the interaction” value was “decreasing interaction strength”.

Variants of: B2
Conditions: with scrib_human SCRIB
Remark: another data set of the same source
Target sequence in this assay (Q14160 whole entry): as the sequence (Q14160 whole entry) above
With S730E the “effect of a mutation on the interaction” value was “causing an interaction”.

Variants of: B2
Conditions: with scrib_human SCRIB
Remark: another data set of the same source
Target sequence in this assay (Q14160 whole entry): as above
For S730A, the “effect of a mutation on the interaction” value was “with no effect”.

Variants of: B3
Conditions: with scrib_human SCRIB
Target sequence in this assay (Q14160 whole entry): as above
MSSPPPARSGFYRQEVTKTAWEVRAVYRDLQPVGSGAYGAVCSAVDGRTGAKVAIKKLYRPFQSELFAKRAYRELRLLKHMRHENVIGLLDVFTPDETLDDFTDFYLVMPFMGTDLGKLMKHEKLGEDRIQFLVYQMLKGLRYIHAAGIIHRDLKPGNLAVNEDCELKILDFGLARQADSEMTGYVVTRWYRAPEVILNWMRYTQTVDIWSVGCIMAEMITGKTLFKGSDHLDQLKEIMKVTGTPPAEFVQRLQSDEAKNYMKGLPELEKKDFASILTNASPLAVNLLEKMLVLDAEQRVTAGEALAHPYFESLHDTEDEPQVQKYDDSFDDVDRTLDEWKRVTYKEVLSFKPPRQLGARVSKEEPL [T365E] was tested, and the “effect of a mutation on the interaction” value was “disrupting interaction strength”.

Variants of: B3
Conditions: with dlg1_human DLG1, Q12959
Target sequence in this assay (Q12959 whole entry, looked up): as the sequence (Q12959 whole entry, looked up) above
In the case of MSSPPPARSGFYRQEVTKTAWEVRAVYRDLQPVGSGAYGAVCSAVDGRTGAKVAIKKLYRPFQSELFAKRAYRELRLLKHMRHENVIGLLDVFTPDETLDDFTDFYLVMPFMGTDLGKLMKHEKLGEDRIQFLVYQMLKGLRYIHAAGIIHRDLKPGNLAVNEDCELKILDFGLARQADSEMTGYVVTRWYRAPEVILNWMRYTQTVDIWSVGCIMAEMITGKTLFKGSDHLDQLKEIMKVTGTPPAEFVQRLQSDEAKNYMKGLPELEKKDFASILTNASPLAVNLLEKMLVLDAEQRVTAGEALAHPYFESLHDTEDEPQVQKYDDSFDDVDRTLDEWKRVTYKEVLSFKPPRQLGARVSKEEPL [T365E], the “effect of a mutation on the interaction” value is reported as “disrupting interaction strength”.

Variants of: B4
Conditions: with scrib_human SCRIB
With MGGHPQLRLVKALLLLGLNPVSASLQDQHCESLSLASNISGLQCNASVDLIGTCWPRSPAGQLVVRPCPAFFYGVRYNTTNNGYRECLANGSWAARVNYSECQEILNEEKKSKVHYHVAVIINYLGHCISLVALLVAFVLFLRLRPGCTHWGDQADGALEVGAPWSGAPFQVRRSIRCLRNIIHWNLISAFILRNATWFVVQLTMSPEVHQSNVGWCRLVTAAYNYFHVTNFFWMFGEGCYLHTAIVLTYSTDRLRKWMFICIGWGVPFPIIVAWAIGKLYYDNEKCWFGKRPGVYTDYIYQGPMILVLLINFIFLFNIVRILMTKLRASTTSETIQYRKAVKATLVLLPLLGITYMLFFVNPGEDEVSRVVFIYFNSFLESFQGFFVSVFYCFLNSEVRSAIRKRWHRWQDKHSIRARVARAMSIPTSPTRVSFHSIKQETAV [S441E] the “effect of a mutation on the interaction” value was “with no effect”.

Variants of: B4
Conditions: with dlg1_human DLG1, Q12959
Target sequence in this assay (Q12959 whole entry, looked up): as the sequence (Q12959 whole entry, looked up) above
MGGHPQLRLVKALLLLGLNPVSASLQDQHCESLSLASNISGLQCNASVDLIGTCWPRSPAGQLVVRPCPAFFYGVRYNTTNNGYRECLANGSWAARVNYSECQEILNEEKKSKVHYHVAVIINYLGHCISLVALLVAFVLFLRLRPGCTHWGDQADGALEVGAPWSGAPFQVRRSIRCLRNIIHWNLISAFILRNATWFVVQLTMSPEVHQSNVGWCRLVTAAYNYFHVTNFFWMFGEGCYLHTAIVLTYSTDRLRKWMFICIGWGVPFPIIVAWAIGKLYYDNEKCWFGKRPGVYTDYIYQGPMILVLLINFIFLFNIVRILMTKLRASTTSETIQYRKAVKATLVLLPLLGITYMLFFVNPGEDEVSRVVFIYFNSFLESFQGFFVSVFYCFLNSEVRSAIRKRWHRWQDKHSIRARVARAMSIPTSPTRVSFHSIKQETAV [S441E] was tested, and the “effect of a mutation on the interaction” value was “increasing interaction strength”.

Variants of: B5
Conditions: with scrib_human SCRIB
With T761E the “effect of a mutation on the interaction” value was “causing an interaction”.

Variants of: B5
Conditions: with scrib_human SCRIB
Remark: another data set of the same source
With T761E the “effect of a mutation on the interaction” value was “increasing interaction strength”.
